T1: mouse Fc P-Selectin (CD62P-Fc Chimera, from R&D Systems) (mouse, UniProt Q01102 42-709)
T1 construct: Bought reagent, coated in the flow chamber; also called mouse P-selectin; not shown: Fc part of the commercial chimera
T1 sequence (looked up): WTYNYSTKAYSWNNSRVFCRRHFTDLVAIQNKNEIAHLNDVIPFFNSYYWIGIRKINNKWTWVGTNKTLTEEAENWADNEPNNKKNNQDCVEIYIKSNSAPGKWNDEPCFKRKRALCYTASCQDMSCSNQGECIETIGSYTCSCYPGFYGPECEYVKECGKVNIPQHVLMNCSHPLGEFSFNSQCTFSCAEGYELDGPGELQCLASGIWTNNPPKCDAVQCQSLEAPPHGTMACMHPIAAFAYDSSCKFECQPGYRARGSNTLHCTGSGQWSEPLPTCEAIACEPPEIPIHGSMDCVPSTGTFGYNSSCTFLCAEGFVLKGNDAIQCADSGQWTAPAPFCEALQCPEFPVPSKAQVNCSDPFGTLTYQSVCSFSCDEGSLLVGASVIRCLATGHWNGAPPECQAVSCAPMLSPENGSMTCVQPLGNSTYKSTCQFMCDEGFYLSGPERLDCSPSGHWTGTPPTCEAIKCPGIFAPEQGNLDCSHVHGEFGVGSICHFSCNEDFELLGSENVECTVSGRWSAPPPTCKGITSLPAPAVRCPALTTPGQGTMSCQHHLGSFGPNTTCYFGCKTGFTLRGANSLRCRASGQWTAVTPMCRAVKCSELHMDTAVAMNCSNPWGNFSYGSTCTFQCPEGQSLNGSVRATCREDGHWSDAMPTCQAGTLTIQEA

B1: rPSGL-Ig (glycosylated SEQ ID NO: 4), thiolated and bound to DSPE-PEG-maleimide on gas-filled microvesicles (Example 4) (Fc fusion)
chain: QATEYEYLDYDFLPETEPPEMLRNSTDTTPLTGPGTPESTTVEPAARPHTCPPCPAPEALGAPSVFLFPPKPKDTLMISRTPEVTCVVVDVSHEDPEVKFNWYVDGVEVHNAKTKPREEQYNSTYRVVSVLTVLHQDWLNGKEYKCKVSNKALPVPIEKTISKAKGQPREPQVYTLPPSREEMTKNQVSLTCLVKGFYPSDIAVEWESNGQPENNYKTTPPVLDSDGSFFLYSKLTVDKSRWQQGNVFSCSVMHEALHNHYTQKSLSLSPGK
modifications: glycosylated; amino groups thiolated with Traut reagent (2-iminothiolane) and coupled to DSPE-PEG-maleimide of the microvesicle envelope
notes: also called recombinant PSGL-Ig; dimPSGL-1
B2: Fr-1, purified fragment of rPSGL-Ig (SEQ ID NO:3), dimeric, thiolated and bound to DSPE-PEG-maleimide on gas-filled microvesicles (Example 6) (other)
chain: QATEYEYLDYDFLPETEPPEMLRNSTDTTPLTGPGTPESTTVEPAARPHTCPPCPAPEALGAPSVFLFPPK
modifications: glycosylated (fragment of glycosylated rPSGL-Ig); thiolated with SATA and deacetylated, then coupled to DSPE-PEG-maleimide of the microvesicle envelope
notes: Disulfide-linked homodimer, about 32 kDa by MALDI-ToF; also called dimeric Fr-1
B3: Monomeric Fr-1 (Fr-1 of SEQ ID NO:3 reduced with TCEP) bound to DSPE-PEG-maleimide on gas-filled microvesicles (Example 8) (other)
chain: QATEYEYLDYDFLPETEPPEMLRNSTDTTPLTGPGTPESTTVEPAARPHTCPPCPAPEALGAPSVFLFPPK
modifications: glycosylated (fragment of glycosylated rPSGL-Ig); disulfide bonds reduced with TCEP, free cysteine thiols coupled to DSPE-PEG-maleimide of the microvesicle envelope
notes: also called reduced monomeric Fr-1

What follows are binders tested against T1, mouse Fc P-Selectin (CD62P-Fc Chimera, …) (assay: flow chamber adhesion of microvesicles on a mouse P-selectin-Fc coating).
Protocol: To test the effective binding, targeted microvesicles prepared according to comparative example 4 were injected in a flow chamber set up comprising a coating of mouse Fc P-Selectin (CD62P-Fc Chimera, from R&D Systems (Minneapolis, Minn., USA). Microvesicles (at equivalent number of 80×10⁶/400 μL TBS++) were injected through the flow chamber (FCS2, Bioptech, USA) in a bolus fashion and their adhesion onto the mouse P-selectin coating layer was assessed over a period of 10 min at a flow rate of 1.0 mL/min (shear rate of 714 s⁻¹) in the presence of 50% human plasma in PBS (v:v, Biomeda collected on citrate, ref. ES1020P, Stehelin & Cie AG). A quantitative analysis of microvesicles accumulation was performed by counting the number of microvesicles adhering in the observed area at 2 min intervals over the total 10 min infusion, using the image processing program Analysis FIVE (SIS, Germany). After 10 min, five pictures were taken randomly and the number of bound microvesicles was measured and expressed as the number of bound bubbles at 10 min (NBB). Each observed area was 183×137 μm, as measured with the aid of a stage micrometer. Measurement was performed between the middle and the exit of the chamber.
Similarly, suspensions of targeted microvesicles prepared according to example 6 (Fr-1 targeting ligand) and according to example 8 (monomeric FR-1) were injected in a flow chamber as described above, and their binding activity determined according to the above procedure.

Binding result, binds:
B1
B2
B3

From patent US20130156706A1 (BRACCO SUISSE S A, published 2013)
